Results as given in paper PMC10899789, “Flexible structural arrangement and DNA-binding properties of protein p6 from Bacillus subtillis phage φ29” (Nucleic Acids Research, 2024).

B1: p6CΔ20 (residues 1–83), C-terminal deletion mutant of φ29 protein p6 (domain or fragment)
chain: AKMMQREITKTTVNVAKMVMVDGEVQVEQLPSETFVGNLTMEQAQWRMKRKYKGEPVQVVSVEPNTEVYELPVEKFLEVATVR
B2: Full-length protein p6 (wt) of Bacillus subtilis bacteriophage φ29 (natural protein, UniProt P03685 1-104, looked up)
chain: MAKMMQREITKTTVNVAKMVMVDGEVQVEQLPSETFVGNLTMEQAQWRMKRKYKGEPVQVVSVEPNTEVYELPVEKFLEVATVRVEKDEDQEEQTEAPEEQVAE
notes: numbers count on: the traditional numbering of φ29 p6, where the second residue (Ala) is position 1 because the initial Met is removed in vivo; about 11.8 kDa as printed; also called wt p6; φ29 protein p6; source: produced and purified as previously described (23)

Molecular target: the molecule itself
Assay: AUC; sedimentation velocity, protein alone, 48 000 rpm, 20°C, 50 mM Tris-HCl pH 7.5, 10 mM MgCl2, 50 mM NaCl; 2.5-320 μM protein; isotherms of weight-average sedimentation coefficients fitted to a monomer-dimer self-association model (SEDPHAT); dimer to monomers

Protein | Kd [µM]
B1 | 47
B2 | 11.4
